assay: protease stability score; higher = more stable; yeast display proteolysis, trypsin and chymotrypsin;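 note: relative to predicted unfolded state with 0 unfolded-like and 1 meaning tenfold more protease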

| Sequence | protease stability score |
| --- | --- |
| DEDERLLKELLESLIKSHRTGDWEHLRENADPRTRLEIGDKEIIGMEKVTHFWERERKRADHEHIEIHDMKIYDGVAHVDTRLHFHFNGVDITLEFRLIMLKVNGRWILKSEHLK | 0.133 |
| SEDEKLAHLVTELMTHSDRTGDERILEHLLDPNTRVIINGVSYHGMEAYRHMVRHIRFHNWEIHDVDSVNGQVHVDSRAEGNIDGVRDILNTWIISDKYDGRWIISEIEII | 0.53 |
| DETERLAEKWYRHWLHLILTGDWELLEKQADPHYKFHVGDKVFIGRELASEWLRHLYEHIRIDDMKITHLDLQGDKINNDGRMRVTQGEKHKEVSVDLHMIVVNGKMHEIRIRTH | 1.45 |
| SEEEETLRDALELVREVLETGDPHLSERLFDPDVRVIYGDKHYHGREYASEMIRFMGVKHFHIKSVRDVDGQVDIDTETHFNGKKYRMHLQTKKIDGKWHLRIIEFR | 1.39 |
| TELEEEVERLMEIFHKAFETGDEHELKRLADPHVRLDFNGRDIHGMDFIIREWLKIKNMRFRIHLDHVELQGEKVHIDGKVEEDFDGVHRHHRVILIWEKYDGRWHHKRMHVK | 1.43 |
| DEEEELTRLALEWLLKVSKTGDERLFREEFDPNVKLDINGRDFHGREEAVRVWLKFVHDAGFKHIEIERVLSFDGRLHLHGVEHIGDKEVETHILTEKFDGKWVMRSIKIN | 0.301 |
| SEKEELDQKFIEDYIRHLLTGDFESLTKMADPNVRLSIDGQNHHGRENFERFAFEWIEKYKNVRIHVRDVHVVDGQAHIIMTLDINGKTREVHIEVFIVNGRIKSNELRYR | 1.36 |
| DEDKEDTDKMIEILIRVARTGDEDSLLHMLDPNVRIVVNGREEHGRDVAHRFLKEIRIHDMEVKRVEIIGNKVKIDGRVDGDFNGVRHKTETEIITEKINGKWVIRSIIFR | 2.1 |
| THEEELSREATRFMLHVLMTGDPTLTEEQADPRTRVVVGDKELHGMEHLSKWYEDHWRQYPNVRIEFKRTEVQGDKMFLDGRLKVNGRETHVFILAFKINGQWVLEEIRFK | 1.59 |
| SEEDELYRHIAEHLLHLLHTGNEEILDHLLDPHVKLEINIGDKRDEFIGRHSLREWLSRFKNVKLHVHDDKVINGVNHVDGTLDINGRRTHIEIHLHVYNGKVRRLQFNIH | 1.62 |
| SEEEELHDEHLKKIYTALLTGDFDTFRNMVDPHVRLDWNGVRLHGREVVVRTMIELGADHIEIKEVSFQGDKVDLHFREKVNGKEFRVRIEKQKFNGQWSISSEHQR | 1.14 |
| SEEDEIMRRLIDITLHAFQTGDWEAVKTMADPNTRLHVNGRDIHGRDEILRFLEKSRRDLGVENIRIDYTDYRQFDGKVKYHGTDIYNGQRLETTIIIVIVDGKMKTETREIR | 0.82 |
| SEHEEHLKHISELMVKLFLTGDEELINHLADPDTRLNINGVHFIGREHAVKASKDFWDELGVNHIEIEDRKVINGRVTMTGHVHVGDKYRRTQNYLVVVNGRLKNVEWRID | 0.806 |
| DEEERQLEEFLELLVEALRTGDWHTLMRMLDPNVKVHIDGKDIHGREEHIRLHIEQWERLGYERIEFRVRIDEVHFINGVVEVDYTQIDQFDGQRLQLRVRIFLLKFDGRWSIDKVVFR | 2.46 |
| SEEEHLFEFVIRVIYHAMKTGDWEFWERYLDPHVRYQQGDKEHHGRKMTLHYLERLSDELGVTRIEVDLKHIHVYNGRVEIIGELNINGRRTEVRITSEKINGRWTVKELHIV | 1.55 |
| SEEEEHTHRISRRFWRFLVTGDEDALLKNADPHVRLVIGDKHSHGRENFKRLLREWLEELGAKHLHIRDLEVQGNKVHTHGEMTVNGRNIETHIELVVIDGRHHSMEFRIG | -0.021 |
| DEIREEMEKVFRVFIHNMFTGDFEKLEELADPNARSKVDGVDDHGMHKFLRHWLHHVRRYGMKVEFEVHHIDVQGDKVQIDTRIVIDYNGRRFEWKSELIAVKIDGQWLIKRIIIH | 1.6 |
| DESKRDVKMFHEIFLRAQSTGDEDELSHLADPNVRIHQGEFHNIGMEEFVKHIREMRVHVRDSHIERVEIQGDKLIVEVRLHMEIRYNGQRTERDVNLHLIIIKINGRWILHSIHIE | 1.02 |
| SEEEELRHELAHRWLRAFETGNFHMLLELFDPNTYFEVGDKKFHGREEVSKLLEEIWEHIRFEHVKVREVRLQGDKLHIDGETDGRVNGRDEKRKVEFEVTVINGVIHSVIIRIK | 2.46 |
| TEEEEKSEHLIRLLLHILTTGDEDTYSWLLDPNAKLTFNGVEFHGREDLRRFWEEHLHRLGVDHRDIKDLKRQGDKVIIHNKIHVNGRTIHQEVEIEVINGKAKFNTVILE | 0.412 |
| DKEEHLVKILIEILHREWETGDEDSISRNADPNTRVDIGDKHFHGREDAMEVLKRMLHQFPNIKFHIEDMRIIGNFVEIDVVINWNGKDVKSHLVFFKINGRWLTRHVEIR | 1.32 |
| SEDEEKSHRFRRELLESLFTGDFDRFKELADPHVKVDINGRDIHGMELLVRIWRREEKEAGVNYTKDHDLKDHDIINGRAKIDIRVHGIFNGREQTVEVYIFSLKVDGRWILTFMKIN | 1.45 |
| DEDEERKHKILEIWLHSLETGDETKLEEMVDPNVRIEFNGREHHGWEHFLEFVRVFGAKVLHLEDEREDGNKIIHHIVVHVNGRRHTLIVIAHKVNGRWVISSIRFE | 1.45 |
| SEEDRDRHKALELIRESSRTGNEELTSRLADPHVRLVFNGRDVHGREEMVRYMHEFGIDHLHIDRLHVQGDKIHIEGSNDWNGVVTELHVLMVKVNGRWRIREVEWR | 1.23 |
| DETEEEARHVFELIIEYHLTGDWDKWLRMFDPHVKLVVNGRDNHGREHAVHRLKEFLRQWRIHDVEVKSVDLQGDKVRVDGRLDGIVNGVREKTEVTLSLIVVDGKIKSHEVRIH | 1.51 |

| Sequence | protease stability score |
| --- | --- |
| EEERERAKDVFELLWDIEKTGDEDTFTKLADPNVRTHVGDKHFHGRELVAKWLVDVLRELRVHDIEIKSETVINGRNIVDGVLDGHINGRTVKMTTEILILVINGRIREIDIRIL | 0.825 |
| SELHEEVRHIAEQWVKSWITGDEHLLQKLADPHVRFKIGDKSNHGRENVIKEIRRLEEEHGAEERIIITHVRVVGDKYELHGTYELRIGDKHETRHLHIEIWVVNGVVKEIDIQID | 1.07 |
| SEHDELVKRNLEEMIRAAETGDEEKLRQLMDPHVKLEVNGREFVGREHWERFFREVIHRFGVTRIEIILHRIHDIDGRIYVDGTEVYGDYFERSLWISLKVNGKWVITHQHIH | 0.336 |
| SEIDKHAEDVMRIWEHVHRTGNEDTLSHLLDPDVKVEIHYDGVDIRLHGMELVSEFLTRFAHHARNKDFKEKDLELQGNKIIRTGIVVFDYDGVEIRRWTHEEIRVVNGRFTHIKKEFH | 0.442 |
| DEDHEVFKRINDLFHESLETGDERVLERLMDPNTRIEYGDKRVHGREELLRHMREMGIDHFNVEDTTVINGVAMLDVSIVVNGKVFKLEFYVNKVNGQWHLEHVEIREI | 0.661 |
| SEEEEKLKKILELLRHRILTGDEEFYSRLIDPNARVNIDGKTTHGREEMEHILRELNEDYGVKHHTVRSTEIFDGVNWIRGEFRVNGRSRTVEIIIWVYNGRLKSSEFRFD | 1.39 |
| SEDEEKVFEHLQRITESFVTGDEDSFRHLLDPNVLFLINGRIFHGWEALHWELRRYDHHEVRVHVHHIDFINGRARSDIRLDLHLNFNGKQIDIHTETRVHAEKINGRWRLKRIDIE | 0.811 |
| SEHEREAREHMEIFRRAFRTGDEQFLTELADPNVRVDVNGVELHGRENFLRVMRHIRFKDIRIKRSREINGVLFIDVRERGIVNGQETTFESEIIILKVDGRWIIEELIIL | 1.39 |
| DEEHEHQHEFAQIIMEMWKTGDWKTMFKLADPNARTIFEGRRLHGRELIWEFLFRLLKKLGVDHEKDRHSHNIGDKIHIHGEEEIGDKKVEVHIHIVIFNGRVKELEIRRREL | 0.511 |
| DEEHEVLRRMVERIREMEKTGDWERYATMADPNTRVDVNGVELHGMENVAFWFWLHLYRHGIEIKDIRVRDIKVQGEKYQEDGELYGHINGQTTILEVHLEITFVNGRIHSEKISIK | 1.25 |
| DDEERWTEEMYRIMIHIEKTGDEHTFSRLADPNVRLIVGDKHFHGRETFIEQLRKLIEHIRVEKIEIRHVELVGEKVILVMKRLSRIDGREVELEVHVEIVIVNGRYKMIRIEIR | 1.43 |
| DDLETMFRRLFREWIERAETGDESRLRHLADPHYRSDQGDYDLHGREFAHEFLSRLWKELRFTIHIRHMYVYDGRVEVDGEIRVRINGRETTHKIRIEIVIVDGRIESEHIEIR | 1.26 |
| SESDEMAVEMLLRWVENLITGDEHTSQELLDPHVRIIFYIGDKEVHYHGWENAVEFWEEVVRRYDYFHIKFEEITVQGEKVRSKTRLTVIINGQEERYDTKLNAIVVNGRFKSVTIQYD | 0.876 |
| DEDHKHAERFVEEFITLILTGNEELLKRLADPNVKIDFDGVEIIGREILNSHTKKQINRIDHIRIHIRHIHVQGDKAIIDLEVRIIVDGKEDRNETHLFLTKVNGRWILTSWKVG | 1.6 |
| SEEEENAHKAMRFLEEVMKTGDEKSWLDLFDPDARIIIGDKHHIGWEHIHELMRRIDHIHDFHVHDVRSQGDKVFVDIKIDGIINGRRYRTRIEVIVRKFDGKWHIDHIQHN | 1.2 |
| DEERKWTKEALDKLLRVIATGDEDFINQNADPRVRLEINGVEIHGRELWHKILKDHSERMGVKHTHLESHDEFNGVITIHMRLFVGDKETRIEIINLKVDGKWIIKSLRIE | 1.22 |
| SEDEKDAHEAVKRMVHFSETGDWREIEELADPHYRIDWNGRTHIGREEFTEITKRLGINVIRHRHITIINGRIHVHGEVHFNGQSTEVEFIITKINGKWRLHEMIIR | 0.747 |
| SESERYIHEAERHLIEKLRTGDWDDMSRLLDPHVRLDVNGQEFHGWHRVSDTMRRFGFKHVDVEDTHINEDELRSHLRSRVDGVHFELHIQMRKVNGRWFFKNLEFK | 1.15 |
| DEDDNDMEEMVRLFDRDLHTGNEDLLTELADPHARFDINGVELHGMHEFVTIWLEIRFILRDSRVEHIHIQGDKAHIKSRLHGEMIFNGRTTIVHSEVHIYFEKIDGRWMIHRHIVK | 0.102 |
| DHEERNIEDFLRELLHSLITGDEHTYRRLMDPNMQLFVDGRTFVGWKEALKWYQEILRRIDVIENIEIEQFSVFDGRVFVRVHLHMRVGDKTHHSFVHILLVKINGKWRLEEHEVV | 1.79 |
| HEEHESLRRATRHELQTLETGDEDLFEKLVDPNYKVVINGVELHGMHELRRWIIELRIDDFELHDVNVVNGRASIDGTMHTHVNGQRLERKVRIHIEKINGRWVRREYIYH | 0.726 |
| SEEEEDAEEFSRLFAELMKTGDEESLHRLADPDVRLHYGDKDHHGREQYTESWKRILDELGVDNVRIELKSVRVINGVVYVDSLVRVGDKTFRLIVIFRKINGRWRLESVKVE | 1.29 |
| SEEEEISKTAIELMIRALHTGDWQHWLHLADPHYRVNINGREHHGREDSLRIINELLELLGVERVELRLEDFRVIDGRIHIITKMHYNGVVTDNRLIMKKVDGKWQLDTVIVT | 1.05 |
| DEDREHVERIVDILIHSFKTGDESFLENYLDPNARLEVGDKTHHGREEVKKLVIRWWHELGIKHVHVDKKTTIDGRIIIHLTILFNGRRFETELIWVIVDGVINKVDIRIQER | 1.45 |
| DEHEELMRTLAEIVLRIFLTGDWDSFSKLADPNYRIDWNGRHTHGMHLAERVLREIHRQIRIDNVILQDMRIQGNKVHNHGTIDGNINGVHDKVQTHVHLILVDGRLKEVEFRHH | -0.231 |

Reference: the NTF2 design screens of Basanta et al. (2020)
